In patent US7378087:

Columns and labels:
[1] = biological target: H-2K^b MHC class I molecule (mouse) (UniProt P01901); experiment: FACS on CMT.64 cells
[2] = biological target: H-2K^b MHC class I molecule (mouse) (UniProt P01901); experiment: FACS on CMT.neo cells (vector control)
[3] = biological target: H-2K^b MHC class I molecule (mouse) (UniProt P01901); experiment: FACS on CMT.64 cells treated with IFN-γ
[4] = biological target: H-2K^b MHC class I molecule (mouse) (UniProt P01901); experiment: FACS on CMT.1-1 cells (rTAP1 transfectant)
[5] = biological target: H-2K^b MHC class I molecule (mouse) (UniProt P01901); experiment: FACS on CMT.1-4 cells (rTAP1 transfectant)
[6] = biological target: H-2K^b MHC class I molecule (mouse) (UniProt P01901); experiment: FACS on CMT.2-1 cells (rTAP2 transfectant)
[7] = biological target: H-2K^b MHC class I molecule (mouse) (UniProt P01901); experiment: FACS on CMT.1-10 cells (rTAP1 transfectant)
[8] = biological target: H-2K^b MHC class I molecule (mouse) (UniProt P01901); experiment: FACS on CMT.2-10 cells (rTAP2 transfectant)
[9] = biological target: H-2K^b MHC class I molecule (mouse) (UniProt P01901); experiment: FACS on CMT.12-21 cells (rTAP1,2 transfectant)
[10] = biological target: H-2K^b MHC class I molecule (mouse) (UniProt P01901); experiment: single-colour FACS on RMA-S cells (linear, 5000 events)
[11] = biological target: H-2K^b MHC class I molecule (mouse) (UniProt P01901); experiment: single-colour FACS on RMA-S.ptml cells (TAP-1 antisense)
[12] = biological target: H-2D^b MHC class I molecule (mouse) (UniProt P01899); experiment: FACS on RMA cells; IFN +, peptide +, hβ2m +
[13] = biological target: H-2D^b MHC class I molecule (mouse) (UniProt P01899); experiment: FACS on RMA cells; IFN +, peptide +, hβ2m -
[14] = biological target: H-2D^b MHC class I molecule (mouse) (UniProt P01899); experiment: FACS on RMA cells; IFN +, peptide -, hβ2m +
[15] = biological target: H-2D^b MHC class I molecule (mouse) (UniProt P01899); experiment: FACS on RMA cells; IFN +, peptide -, hβ2m -
[16] = biological target: H-2D^b MHC class I molecule (mouse) (UniProt P01899); experiment: FACS on RMA cells; IFN -, peptide +, hβ2m +
[17] = biological target: H-2D^b MHC class I molecule (mouse) (UniProt P01899); experiment: FACS on RMA cells; IFN -, peptide -, hβ2m -
[18] = biological target: H-2D^b MHC class I molecule (mouse) (UniProt P01899); experiment: FACS on RMA-S cells; IFN +, peptide +, hβ2m +
[19] = biological target: H-2D^b MHC class I molecule (mouse) (UniProt P01899); experiment: FACS on RMA-S cells; IFN +, peptide +, hβ2m -
[20] = biological target: H-2D^b MHC class I molecule (mouse) (UniProt P01899); experiment: FACS on RMA-S cells; IFN +, peptide -, hβ2m +
[21] = biological target: H-2D^b MHC class I molecule (mouse) (UniProt P01899); experiment: FACS on RMA-S cells; IFN +, peptide -, hβ2m -
[22] = biological target: H-2D^b MHC class I molecule (mouse) (UniProt P01899); experiment: FACS on RMA-S cells; IFN -, peptide +, hβ2m +
[23] = biological target: H-2D^b MHC class I molecule (mouse) (UniProt P01899); experiment: FACS on RMA-S cells; IFN -, peptide -, hβ2m -
[24] = biological target: H-2D^b MHC class I molecule (mouse) (UniProt P01899); experiment: FACS on CMT.64 cells; IFN +, peptide -, hβ2m -
[25] = biological target: H-2D^b MHC class I molecule (mouse) (UniProt P01899); experiment: FACS on CMT.64 cells; IFN -, peptide +, hβ2m +
[26] = biological target: H-2D^b MHC class I molecule (mouse) (UniProt P01899); experiment: FACS on CMT.64 cells; IFN -, peptide -, hβ2m -
[27] = biological target: H-2D^b MHC class I molecule (mouse) (UniProt P01899); experiment: FACS on CMT.64 cells; IFN * (so in the source), peptide +, hβ2m +
[28] = biological target: human β2-microglobulin (human) (UniProt P61769); experiment: FACS on RMA cells; IFN +, peptide +, hβ2m - (no hβ2m added: background)
[29] = biological target: human β2-microglobulin (human) (UniProt P61769); experiment: FACS on RMA cells; IFN +, peptide -, hβ2m - (no hβ2m added: background)
[30] = biological target: human β2-microglobulin (human) (UniProt P61769); experiment: FACS on RMA cells; IFN -, peptide -, hβ2m - (no hβ2m added: background)
[31] = biological target: human β2-microglobulin (human) (UniProt P61769); experiment: FACS on RMA-S cells; IFN +, peptide +, hβ2m - (no hβ2m added: background)
[32] = biological target: human β2-microglobulin (human) (UniProt P61769); experiment: FACS on RMA-S cells; IFN +, peptide -, hβ2m - (no hβ2m added: background)
[33] = biological target: human β2-microglobulin (human) (UniProt P61769); experiment: FACS on RMA-S cells; IFN -, peptide -, hβ2m - (no hβ2m added: background)
[34] = biological target: human β2-microglobulin (human) (UniProt P61769); experiment: FACS on RMA cells; IFN +, peptide +, hβ2m + (hβ2m bound on the cell surface)
[35] = biological target: human β2-microglobulin (human) (UniProt P61769); experiment: FACS on RMA cells; IFN +, peptide -, hβ2m + (hβ2m bound on the cell surface)
[36] = biological target: human β2-microglobulin (human) (UniProt P61769); experiment: FACS on RMA cells; IFN -, peptide +, hβ2m + (hβ2m bound on the cell surface)
[37] = biological target: human β2-microglobulin (human) (UniProt P61769); experiment: FACS on RMA-S cells; IFN +, peptide +, hβ2m + (hβ2m bound on the cell surface)
[38] = biological target: human β2-microglobulin (human) (UniProt P61769); experiment: FACS on RMA-S cells; IFN +, peptide -, hβ2m + (hβ2m bound on the cell surface)
[39] = biological target: human β2-microglobulin (human) (UniProt P61769); experiment: FACS on RMA-S cells; IFN -, peptide +, hβ2m + (hβ2m bound on the cell surface)
[40] = biological target: H-2D^b MHC class I molecule (mouse) (UniProt P01899); experiment: FACS on CMT.64 cells
[41] = biological target: H-2D^b MHC class I molecule (mouse) (UniProt P01899); experiment: FACS on CMT.64 cells treated with IFN-γ
[42] = biological target: H-2D^b MHC class I molecule (mouse) (UniProt P01899); experiment: FACS on CMT.1-4 cells (rTAP1 transfectant)
[43] = biological target: H-2D^b MHC class I molecule (mouse) (UniProt P01899); experiment: FACS on CMT.2-1 cells (rTAP2 transfectant)
[44] = biological target: H-2D^b MHC class I molecule (mouse) (UniProt P01899); experiment: FACS on CMT.1-10 cells (rTAP1 transfectant)
[45] = biological target: H-2D^b MHC class I molecule (mouse) (UniProt P01899); experiment: FACS on CMT.2-10 cells (rTAP2 transfectant)
[46] = biological target: H-2D^b MHC class I molecule (mouse) (UniProt P01899); experiment: FACS on CMT.12-21 cells (rTAP1,2 transfectant)
[47] = biological target: H-2D^b MHC class I molecule (mouse) (UniProt P01899); experiment: single-colour FACS on RMA-S cells (linear, 5000 events)
[48] = biological target: H-2D^b MHC class I molecule (mouse) (UniProt P01899); experiment: single-colour FACS on RMA-S.ptml cells (TAP-1 antisense)

UniProt P61769, sequence (P61769 21-119 limits assumed): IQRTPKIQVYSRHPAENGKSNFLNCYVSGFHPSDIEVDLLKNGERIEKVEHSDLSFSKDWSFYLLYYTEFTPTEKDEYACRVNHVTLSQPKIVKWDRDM
UniProt P01899, sequence (P01899 25-309 limits assumed): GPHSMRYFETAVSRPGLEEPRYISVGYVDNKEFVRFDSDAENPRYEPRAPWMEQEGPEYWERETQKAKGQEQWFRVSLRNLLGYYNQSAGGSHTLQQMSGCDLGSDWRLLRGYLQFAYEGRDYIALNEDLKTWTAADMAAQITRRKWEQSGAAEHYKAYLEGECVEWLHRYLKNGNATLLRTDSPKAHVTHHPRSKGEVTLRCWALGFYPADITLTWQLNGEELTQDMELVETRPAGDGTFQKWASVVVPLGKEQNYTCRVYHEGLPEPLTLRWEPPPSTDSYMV
UniProt P01901, sequence (P01901 22-305 limits assumed): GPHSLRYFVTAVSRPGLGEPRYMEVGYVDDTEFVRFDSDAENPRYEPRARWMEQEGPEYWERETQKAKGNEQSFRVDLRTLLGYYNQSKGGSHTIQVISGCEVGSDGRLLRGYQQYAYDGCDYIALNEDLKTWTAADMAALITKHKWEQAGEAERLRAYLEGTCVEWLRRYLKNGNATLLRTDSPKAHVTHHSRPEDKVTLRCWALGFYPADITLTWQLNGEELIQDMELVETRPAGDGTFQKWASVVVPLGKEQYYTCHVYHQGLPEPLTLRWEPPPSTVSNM

For Y-3 anti-H-2K^b monoclonal antibody, the immunofluorescence intensity (negative control subtracted) [1] was 0, the immunofluorescence intensity (negative control subtracted) [2] was 0.1 and the immunofluorescence intensity (negative control subtracted) [3] was 590. For the same substance, the immunofluorescence intensity (negative control subtracted) [4] was 62, the immunofluorescence intensity (negative control subtracted) [5] was 64 and the immunofluorescence intensity (negative control subtracted) [6] was 3. It also gave an immunofluorescence intensity (negative control subtracted) [7] of 36, an immunofluorescence intensity (negative control subtracted) [8] of 48 and an immunofluorescence intensity (negative control subtracted) [9] of 22. For the same substance, the MEAN FLUORESCENCE [10] was 222 and the MEAN FLUORESCENCE [11] was 149.
“28-11-5s anti H-2 D^b (α1+α2) monoclonal antibody” showed a fluorescence units (arbitrary fluorescence units) [12] of 515, a fluorescence units (arbitrary fluorescence units) [13] of 449 and a fluorescence units (arbitrary fluorescence units) [14] of 549. The fluorescence units (arbitrary fluorescence units) [15] was 430, the fluorescence units (arbitrary fluorescence units) [16] was 182 and the fluorescence units (arbitrary fluorescence units) [17] was 173. The fluorescence units (arbitrary fluorescence units) [18] was 2, the fluorescence units (arbitrary fluorescence units) [19] was 1 and the fluorescence units (arbitrary fluorescence units) [20] was 2. The fluorescence units (arbitrary fluorescence units) [21] was 4, the fluorescence units (arbitrary fluorescence units) [22] was 2 and the fluorescence units (arbitrary fluorescence units) [23] was 2. The fluorescence units (arbitrary fluorescence units) [24] was 58, the fluorescence units (arbitrary fluorescence units) [25] was 5 and the fluorescence units (arbitrary fluorescence units) [26] was 3. For the same substance, the fluorescence units (arbitrary fluorescence units) [27] was 53.
Work on “BBM.1 monoclonal antibody against human β2m” yielded a fluorescence units (arbitrary fluorescence units) [28] of 4, a fluorescence units (arbitrary fluorescence units) [29] of 6 and a fluorescence units (arbitrary fluorescence units) [30] of 1. The fluorescence units (arbitrary fluorescence units) [31] was 14, the fluorescence units (arbitrary fluorescence units) [32] was 14 and the fluorescence units (arbitrary fluorescence units) [33] was 1. The fluorescence units (arbitrary fluorescence units) [34] was 606, the fluorescence units (arbitrary fluorescence units) [35] was 406 and the fluorescence units (arbitrary fluorescence units) [36] was 274. The fluorescence units (arbitrary fluorescence units) [37] was 262, the fluorescence units (arbitrary fluorescence units) [38] was 76 and the fluorescence units (arbitrary fluorescence units) [39] was 86.
In the case of “28-14-8s anti H-2 D^b (α3) monoclonal antibody”, the immunofluorescence intensity (negative control subtracted) [40] is reported as 18, the immunofluorescence intensity (negative control subtracted) [41] is reported as 1100 and the immunofluorescence intensity (negative control subtracted) [42] is reported as 164. The immunofluorescence intensity (negative control subtracted) [43] was 10, the immunofluorescence intensity (negative control subtracted) [44] was 68 and the immunofluorescence intensity (negative control subtracted) [45] was 39. The immunofluorescence intensity (negative control subtracted) [46] was 103, the MEAN FLUORESCENCE [47] was 130 and the MEAN FLUORESCENCE [48] was 96.7.
